Experimental data from paper PMC3463621.

Molecular target: recombinant collagen α1(XI) amino terminal domain (NTD) (UniProt P20909)
Assay: SPR

Sequence of UniProt P20909 (P20909 35-1561): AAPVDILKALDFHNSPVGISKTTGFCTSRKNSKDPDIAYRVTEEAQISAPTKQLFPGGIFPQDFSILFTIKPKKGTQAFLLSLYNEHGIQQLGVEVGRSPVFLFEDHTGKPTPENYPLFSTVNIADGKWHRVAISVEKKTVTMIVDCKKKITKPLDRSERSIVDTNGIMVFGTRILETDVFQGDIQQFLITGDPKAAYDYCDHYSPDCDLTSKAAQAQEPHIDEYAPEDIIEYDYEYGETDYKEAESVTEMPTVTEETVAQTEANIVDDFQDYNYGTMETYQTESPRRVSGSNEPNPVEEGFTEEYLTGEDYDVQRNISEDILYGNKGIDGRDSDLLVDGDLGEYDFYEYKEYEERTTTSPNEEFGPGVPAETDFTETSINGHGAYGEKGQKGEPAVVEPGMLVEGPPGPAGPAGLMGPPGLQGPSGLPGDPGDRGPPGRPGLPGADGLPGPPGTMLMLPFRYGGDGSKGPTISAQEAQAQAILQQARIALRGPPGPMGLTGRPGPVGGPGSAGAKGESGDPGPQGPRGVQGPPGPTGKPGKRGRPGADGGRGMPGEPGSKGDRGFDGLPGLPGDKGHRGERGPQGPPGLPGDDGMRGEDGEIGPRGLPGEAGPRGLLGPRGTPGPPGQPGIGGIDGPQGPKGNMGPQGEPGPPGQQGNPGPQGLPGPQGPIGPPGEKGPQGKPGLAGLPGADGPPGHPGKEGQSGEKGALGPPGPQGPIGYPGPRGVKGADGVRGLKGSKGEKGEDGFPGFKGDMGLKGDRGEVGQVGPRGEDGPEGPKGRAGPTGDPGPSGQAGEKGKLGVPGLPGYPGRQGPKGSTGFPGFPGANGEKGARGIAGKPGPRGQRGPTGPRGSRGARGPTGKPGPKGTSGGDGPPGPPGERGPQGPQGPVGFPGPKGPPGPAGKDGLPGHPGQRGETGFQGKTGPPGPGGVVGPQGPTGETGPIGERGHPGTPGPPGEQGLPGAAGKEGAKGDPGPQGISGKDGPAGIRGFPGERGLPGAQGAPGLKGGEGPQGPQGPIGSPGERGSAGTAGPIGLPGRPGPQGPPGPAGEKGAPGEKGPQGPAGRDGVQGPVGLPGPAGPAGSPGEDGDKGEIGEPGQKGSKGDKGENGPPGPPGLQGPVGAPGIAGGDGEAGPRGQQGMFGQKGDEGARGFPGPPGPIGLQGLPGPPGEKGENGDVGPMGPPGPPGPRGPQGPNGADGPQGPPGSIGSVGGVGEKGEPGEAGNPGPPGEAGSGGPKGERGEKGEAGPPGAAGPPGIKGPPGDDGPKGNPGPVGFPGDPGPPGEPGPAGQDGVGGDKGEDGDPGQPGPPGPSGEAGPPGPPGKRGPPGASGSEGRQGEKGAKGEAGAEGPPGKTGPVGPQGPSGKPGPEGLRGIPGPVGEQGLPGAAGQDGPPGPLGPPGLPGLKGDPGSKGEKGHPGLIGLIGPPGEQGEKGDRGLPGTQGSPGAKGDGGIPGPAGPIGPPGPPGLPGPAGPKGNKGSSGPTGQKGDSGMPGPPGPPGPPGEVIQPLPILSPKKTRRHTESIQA

Question: “Thrombospondin 1 (R&D Systems) (from UniProt P07996 19-1170) (natural protein)” was tested. Which Kd did it give?
Answer: Its Kd is 100 nM.
